Results reported in the supplement of paper PMC9170038.

System: MS2 coat protein
Test: apparent KD of MS2 coat protein; higher = weaker reporter binding
Conditions: Eterna round: R107
Summary of the method: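 Binding of SNAP-549-labelled MS2 coat protein was measured on designed RNA switches transcribed on-chip from Illumina sequencing clusters. The protein rose in twofold steps from 0.7 or 1.5 nM to 3 µM, with 0.8–1.5 h per step early on and 10–20 min per step later, in 100 mM Tris-HCl pH 7.5, 80 mM KCl, 4 mM MgCl2, without or with constant ligand. Each design's apparent KD is the median of fits to its normalised cluster binding curves.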

[1] = input ligand: theophylline 20 uM
[2] = input ligand: theophylline 2 mM
[3] = input ligand: tryptophan 2.4 mM

| Sequence | apparent KD of MS2 coat protein (input ligand: arginine 13.2 mM) | apparent KD of MS2 coat protein [1] | apparent KD of MS2 coat protein [2] | apparent KD of MS2 coat protein (input ligand: none) | apparent KD of MS2 coat protein [3] |
| --- | --- | --- | --- | --- | --- |
| UGCAUUAUACAUGGAUCACCCAUGUAGACACGAGGACCGGUACGGCCGCCACUCGGAAGAGGAAACAUGAGGAUCACCCAUGUGA [Try A SS t2] | 42.7 nM | 89.7 nM | 105 nM | – | – |
| UGCUACAUGAGGAUCACCCAUGUGGGUGAUACCAGCAUUCGUUUAUGCCCUUGGCAGCGCAGCCGAACCAAUCAUUCGGCAGAAA [Artiusar] | 21 nM | 201 nM | 861 nM | 23 nM | 81 nM |
| UGGUACAUGGCGGCCGCCACUGGGUUGAAAACCUGAGGAUCACCCUGGUAAAACGCGAAAGCGACUAGGACCGGGUCAUGUACCU | 167 nM | 891 nM | 787 nM | 573 nM | 70.5 nM |
| UGGUCACUAGGAGAUACCAGCCGACAUGAGGAUCACCCAUGUAACCGGCGUCCUCCCUUAGGCCCUUGGCAGCUCGUAGUUGCUC [Vebice] | 11.9 nM | 22.5 nM | – | – | 12.6 nM |
| UGUACCAUGUCGGCCGCCACUCAUGAUAAACCUGAGGAUCACCCUGGUAGCGUCAAAGACGCUAUGAGGACCGGGACAUGGUACU [TryBS Zipper 2] | 29.7 nM | 35.2 nM | 33 nM | 24.4 nM | 20.5 nM |
| UGUACUAUGUGAAGGAGCGCCACAUGAGGAUCACCCAUGUAAACAUGAGGAUCACCCAUGUGGCAGGUAGGUCGCACAUAGUACU [ArgBS - Double MS2 - I don't expect this to work] | 49.7 nM | 203 nM | 227 nM | 108 nM | 78.7 nM |
| UGUAUGGACUGAAGGAGCGCCUCAAAAUAACUUGAGGAUCACCCAGGUAAGGCGAAAGCCGGGCAGGUAGGUCGCAGUCCAUACU [ArgBX 3] | 31.2 nM | 43.1 nM | 72.3 nM | 37 nM | 49.9 nM |
| UGUAUGUGAUCUGAUACCAGAGUGACGCGAAAGCGAAACCUGAGGAUCACCCUGGUAAAACUCCCUUGGCAGCAGAUCGCAUACU | 76 nM | 35.3 nM | 23.9 nM | 49.5 nM | 68.3 nM |
| UGUAUGUGAUCUGAUACCAGCCUCAUAGCUUGAGGAUCACCCAAGUGGAGCGGAAACGCUGGCCCUUGGCAGCAGAUCGCAUACU [TheoBS 1 #AlternativeMS2] | 252 nM | 199 nM | 13.5 nM | 471 nM | 516 nM |
| UGUAUGUGAUCUGAUACCAGUCCAACUGGUAAAAUCUGAGGAUCACCCAGGUAAAAUUGGGACCCUUGGCAGCAGAUCGCAUACU | 146 nM | 423 nM | 544 nM | 175 nM | 235 nM |
| UGUAUGUGAUCUGAUACCAGUCCCUUGGCAGCAACAUGAGGAUCACCCAUGUAGAUACCAGACCCUUGGCAGCAGAUCGCAUACU [#DoubleAptamer 1] | 8.55 nM | 9.15 nM | – | – | 8.2 nM |
| UGUAUGUGAUUUGAUACCAGACCAGCUGGUGGUACUUGAGGAUCACCCAGGUAGGUUUGGGUCCCUUGGCAGCAAAUCGCAUACU [SS Theo B #24 Ms12] | 293 nM | 731 nM | 408 nM | 512 nM | 1310 nM |
| UGUAUUGGAAACAGUACUAGUGAUCCGGUCCGAGGACCGGUACGGCCGCCACUCGAAAUUAAUAAACAUGAGGAUCACCCAUGUA [Ex Tryptophan A 11] | 15.7 nM | 19.7 nM | 20.2 nM | – | – |
| UGUCGAAACUGAAGGAGCGAGAUGACAAACAUGAGGAUCACCCAUGUUAUGGGUUGUUAAUCUCAGGUAGGUCGCAGUGACAAAA [Same State Arginine B GF 16] | 88.2 nM | 86.8 nM | 150 nM | 106 nM | 103 nM |
| UGUGACAUGAGGAUCACCCAUGUAAGGGAAGGAGCGCCGAAUAAGGCAGGUAGGUCGCCCAAGAUAGAAGAAUAAUAAGAUUGUG [Arginine A Same State; Euphoria Solution] | 20.8 nM | 39.9 nM | 27.9 nM | 27.1 nM | 28.3 nM |
| UGUGUUGUCCGAAGGAGCGGGACCUAAUAGUGGUAACAUGAGGAUCACCCAUGUAUUUCGUCCCAGGUAGGUCGCGGACAGUGUA [ArgiB-ms2@36] | 19 nM | 32.2 nM | 25.1 nM | 20.7 nM | 21.7 nM |
| UUAACGAGCUGAAGGAGCGCUCUUCAUCAACAUGAGGAUCACCCAUGUACACAUAAUAGGGAGCAGGUAGGUCGCAGCGGGAUGG [#24 Same State - Arginine B] | 14.2 nM | 24.8 nM | 17.4 nM | 16.2 nM | 17.2 nM |
